Consider one molecule from article PMC3824080.

This assay concerns the target T1, Human cytosolic aspartyl-tRNA synthetase (human), P14868.
T1 chain: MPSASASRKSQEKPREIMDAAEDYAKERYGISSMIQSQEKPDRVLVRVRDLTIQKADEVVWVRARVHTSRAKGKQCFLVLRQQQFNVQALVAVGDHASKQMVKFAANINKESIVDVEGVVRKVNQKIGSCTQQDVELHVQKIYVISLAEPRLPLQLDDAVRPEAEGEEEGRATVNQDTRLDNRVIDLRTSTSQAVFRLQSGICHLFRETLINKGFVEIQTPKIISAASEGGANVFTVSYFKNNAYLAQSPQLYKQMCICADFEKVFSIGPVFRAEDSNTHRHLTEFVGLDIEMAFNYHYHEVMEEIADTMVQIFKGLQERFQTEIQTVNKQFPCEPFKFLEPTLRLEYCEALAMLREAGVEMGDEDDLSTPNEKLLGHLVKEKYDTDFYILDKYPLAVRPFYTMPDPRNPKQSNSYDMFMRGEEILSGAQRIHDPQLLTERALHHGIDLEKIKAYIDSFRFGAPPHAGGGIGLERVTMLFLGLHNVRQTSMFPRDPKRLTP
In words: crystal structure. The note with it: remark: other sources report otherwise.

B1: Human cytosolic aspartyl-tRNA synthetase, P14868 1-501 (enzyme)
chain: MPSASASRKSQEKPREIMDAAEDYAKERYGISSMIQSQEKPDRVLVRVRDLTIQKADEVVWVRARVHTSRAKGKQCFLVLRQQQFNVQALVAVGDHASKQMVKFAANINKESIVDVEGVVRKVNQKIGSCTQQDVELHVQKIYVISLAEPRLPLQLDDAVRPEAEGEEEGRATVNQDTRLDNRVIDLRTSTSQAVFRLQSGICHLFRETLINKGFVEIQTPKIISAASEGGANVFTVSYFKNNAYLAQSPQLYKQMCICADFEKVFSIGPVFRAEDSNTHRHLTEFVGLDIEMAFNYHYHEVMEEIADTMVQIFKGLQERFQTEIQTVNKQFPCEPFKFLEPTLRLEYCEALAMLREAGVEMGDEDDLSTPNEKLLGHLVKEKYDTDFYILDKYPLAVRPFYTMPDPRNPKQSNSYDMFMRGEEILSGAQRIHDPQLLTERALHHGIDLEKIKAYIDSFRFGAPPHAGGGIGLERVTMLFLGLHNVRQTSMFPRDPKRLTP
By stoichiometry N is commonly meant the number of molecules, sites or subunits per partner or assembly. The molecule B1 yielded a stoichiometry N of 2.
